Measurements published in the RNAGym collection of RNA variant scans (doi:10.7554/elife.80360).

B1: CPEB3 Ribozyme (parent)
chain: GGGGGCCACAGCAGAAGCGUUCACGUCGCGGCCCCUGUCAGAUUCUGGUGAAUCUGCGAAUUCUGCUGU

Variants of: B1
Test: self-cleavage, relative activity (ratio to wild type); higher = more cleavage; co-transcriptional

Variant | self-cleavage
G41U G56A | 0.581
G41U G58A | 0.935
G41U G58C | 0.94
G41U G58U | 0.939
G41U G65A | 0.438
G41U G65U | 0.366
G41U G68A | 0.931
G41U G68C | 0.93
G41U G68U | 0.972
G41U U43A | 0.3
G41U U43C | 0.357
G41U U43G | 0.267
G41U U44A | 0.339
G41U U44G | 0.336
G41U U46A | 0.947
G41U U46C | 0.752
G41U U46G | 0.887
G41U U49C | 0.849
G41U U53C | 0.364
G41U U53G | 0.604
G41U U55G | 0.324
G41U U61A | 0.64
G41U U61C | 0.402
G41U U61G | 0.314

Variant | self-cleavage
G41U U62A | 0.506
G41U U62C | 0.384
G41U U64A | 0.501
G41U U64C | 0.382
G41U U64G | 0.441
G41U U67C | 0.872
G41U U69A | 0.995
G41U U69G | 1.02
A42C | 0.961
A42C A51G | 0.852
A42C A52C | 0.803
A42C A52G | 0.919
A42C A52U | 0.96
A42C A60U | 0.459
A42C C45A | 0.851
A42C C45G | 0.819
A42C C45U | 0.937
A42C C54G | 0.73
A42C C57A | 0.398
A42C C57G | 0.342
A42C C57U | 0.376
A42C C63A | 0.547
A42C C63G | 0.542
A42C C66G | 0.661

Variant | self-cleavage
A42C C66U | 0.96
A42C G47A | 0.921
A42C G50A | 0.952
A42C G50C | 0.858
A42C G56C | 0.325
A42C G56U | 0.568
A42C G58C | 1.04
A42C G65A | 0.627
A42C G68A | 1
A42C G68C | 0.963
A42C G68U | 1.01
A42C U43A | 0.778
A42C U43G | 0.703
A42C U44A | 0.83
A42C U44C | 0.736
A42C U44G | 0.816
A42C U46G | 0.929
A42C U49A | 0.974
A42C U49G | 0.964
A42C U53A | 1.03
A42C U55A | 0.595
A42C U55C | 0.328
A42C U55G | 0.285
A42C U61A | 0.742

Variant | self-cleavage
A42C U61C | 0.477
A42C U62A | 0.673
A42C U62C | 0.659
A42C U62G | 0.757
A42C U64A | 0.625
A42C U64G | 0.769
A42C U67A | 0.964
A42C U67C | 0.97
A42C U69A | 1.02
A42C U69C | 1.05
A42C U69G | 1.01
A42G | 0.951
A42G A51C | 0.672
A42G A51U | 0.799
A42G A52C | 0.854
A42G A52U | 0.718
A42G A59C | 0.577
A42G A59G | 0.81
A42G A59U | 0.735
A42G A60G | 0.85
A42G C45A | 1.01
A42G C45U | 0.927
A42G C54U | 0.799
A42G C57U | 0.356

Variant | self-cleavage
A42G C63A | 0.617
A42G C63G | 0.583
A42G C63U | 0.889
A42G C66A | 0.558
A42G C66G | 0.622
A42G C66U | 0.93
A42G G47A | 0.955
A42G G47U | 0.988
A42G G48C | 0.989
A42G G48U | 0.948
A42G G50U | 0.887
A42G G56A | 0.761
A42G G56C | 0.475
A42G G58A | 0.951
A42G G58C | 0.894
A42G G65A | 0.639
A42G G65C | 0.508
A42G G65U | 0.605
A42G U43A | 0.853
A42G U43C | 0.935
A42G U43G | 0.565
A42G U44A | 0.822
A42G U44C | 0.562
A42G U46A | 0.935

Variant | self-cleavage
A42G U46G | 0.941
A42G U49A | 0.938
A42G U49C | 0.901
A42G U49G | 0.96
A42G U53A | 0.895
A42G U53G | 0.801
A42G U55A | 0.543
A42G U55C | 0.492
A42G U61G | 0.359
A42G U62C | 0.647
A42G U67A | 0.86
A42G U67C | 0.957
A42G U67G | 0.897
A42G U69C | 1.04
A42G U69G | 1.03
A42U | 0.965
A42U A51C | 0.839
A42U A51U | 0.914
A42U A52C | 0.945
A42U A52G | 0.88
A42U A52U | 0.986
A42U A59G | 0.965
A42U A60C | 0.219
A42U A60G | 0.74

Variant | self-cleavage
A42U A60U | 0.436
A42U C54A | 0.834
A42U C54G | 0.56
A42U C57U | 0.436
A42U C63U | 0.876
A42U C66A | 0.461
A42U C66U | 0.876
A42U G47C | 0.993
A42U G47U | 1.02
A42U G48A | 0.968
A42U G48C | 0.947
A42U G50C | 0.809
A42U G50U | 0.937
A42U G56A | 0.799
A42U G56U | 0.517
A42U G58A | 0.923
A42U G58C | 0.97
A42U G65A | 0.661
A42U G65C | 0.433
A42U G65U | 0.481
A42U G68A | 0.956
A42U U43A | 0.914
A42U U44A | 0.898
